Data: patent US20120039802A1 (published 2012)

These binders were tested against T1, cMet-Fc fusion protein (extracellular domain of the cMet receptor expressed as an Fc-fusion protein) (human, UniProt P08581 25-932) (assay: phage ELISA, cMet-Fc vs TRAIL-Fc).
T1 construct: extracellular domain; also called soluble cMet-Fc-fusion protein; soluble cMet receptor; not shown: Fc part
Outline: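 Specificity check: phage displaying peptides incubated 2 h at room temperature on wells coated with 0.5 μg/mL cMet-Fc versus TRAIL-Fc, after blocking with 3% BSA/PBST. HRP-anti-M13 antibody detected binding phage.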

T1 sequence (P08581 25-932): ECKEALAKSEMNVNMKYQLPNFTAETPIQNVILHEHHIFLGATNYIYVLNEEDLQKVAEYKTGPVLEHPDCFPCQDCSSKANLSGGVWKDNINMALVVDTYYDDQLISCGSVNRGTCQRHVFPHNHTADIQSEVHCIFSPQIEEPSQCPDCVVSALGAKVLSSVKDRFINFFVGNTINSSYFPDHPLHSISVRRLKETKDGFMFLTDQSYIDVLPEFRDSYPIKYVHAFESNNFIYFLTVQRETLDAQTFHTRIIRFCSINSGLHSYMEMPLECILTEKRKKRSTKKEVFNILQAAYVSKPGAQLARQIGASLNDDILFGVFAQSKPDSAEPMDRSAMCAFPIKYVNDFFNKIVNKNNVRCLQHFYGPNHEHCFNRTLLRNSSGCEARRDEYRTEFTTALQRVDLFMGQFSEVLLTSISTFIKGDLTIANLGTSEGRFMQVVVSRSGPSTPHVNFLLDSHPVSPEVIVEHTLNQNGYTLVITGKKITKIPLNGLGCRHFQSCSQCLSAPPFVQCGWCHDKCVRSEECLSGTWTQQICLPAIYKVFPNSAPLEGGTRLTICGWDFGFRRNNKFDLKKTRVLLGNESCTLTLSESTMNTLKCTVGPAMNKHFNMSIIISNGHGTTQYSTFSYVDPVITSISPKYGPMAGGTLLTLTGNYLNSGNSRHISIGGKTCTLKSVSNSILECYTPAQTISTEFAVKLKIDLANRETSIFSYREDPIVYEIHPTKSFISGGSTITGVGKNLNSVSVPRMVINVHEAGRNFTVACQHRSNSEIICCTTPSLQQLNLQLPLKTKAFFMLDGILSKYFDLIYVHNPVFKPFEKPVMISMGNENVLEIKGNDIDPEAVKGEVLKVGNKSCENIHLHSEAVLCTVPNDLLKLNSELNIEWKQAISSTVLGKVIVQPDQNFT

Binder | Protein ELISA (fold over background)
GDYRMCQISDMWGNYECSSDDP [548-G05 peptide-displaying phage (SEQ ID NO: 400)] | 6.1 fold
GSAGWCYTMNYVDQLCTYMAP [445-E11 peptide-displaying phage (SEQ ID NO: 387)] | 3.7 fold
GDHLTCEFRDDGWKEHCWWSDP [552-F06 peptide-displaying phage (SEQ ID NO: 403)] | 11.1 fold
GDSYNCSWDSKTFEVTCLYADP [546-B01 peptide-displaying phage (SEQ ID NO: 393)] | 8.4 fold
GDYSECFFEPDSFEVKCYDRDP [545-H12 peptide-displaying phage (SEQ ID NO: 399)] | 11.3 fold
AQQASRFTFTDGDSYWWFEDF [525-A07 peptide-displaying phage (SEQ ID NO: 449)] | 7 fold
GDLLVCKFDDKFWTETCEWADP [549-G05 peptide-displaying phage (SEQ ID NO: 392)] | 23.7 fold
GSDMNCTVLAQDQIFCFREAP [451-C06 peptide-displaying phage (SEQ ID NO: 386)] | 3 fold
GDLLGCGYQEKGGEYKCRFNDP [334-F05 peptide-displaying phage (SEQ ID NO: 395)] | 13.5 fold
GSFWNCTTDLGAMSDCGFFAP [445-E07 peptide-displaying phage (SEQ ID NO: 383)] | 3.1 fold
AGDGWCMAWPEICEWLGT [434-E12 peptide-displaying phage (SEQ ID NO: 014)] | 4.8 fold
GDPWWCFEKDSFIPFACWHHDP [330-G02 peptide-displaying phage (SEQ ID NO: 396)] | 7.4 fold
GDDFHCEFIDDYQSEICYFNDP [333-C03 peptide-displaying phage (SEQ ID NO: 391)] | 12.4 fold

The binders below were run against T1, cMet-Fc fusion protein (extracellular …) (assay: phage ELISA on cMet-Fc, competitor HGF 500 ng/mL).
Outline: (§1)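 Plates coated with 0.5 μg/mL cMet-Fc, with TRAIL-Fc as background, then blocked with 3% BSA. Bound phage detected with HRP anti-M13 antibody.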

Binder | % of binding in the absence of HGF
GDYRMCQISDMWGNYECSSDDP [548-G05 peptide-displaying phage (SEQ ID NO: 400)] | 47%
GSAGWCYTMNYVDQLCTYMAP [445-E11 peptide-displaying phage (SEQ ID NO: 387)] | 79%
GDHLTCEFRDDGWKEHCWWSDP [552-F06 peptide-displaying phage (SEQ ID NO: 403)] | 32%
GDSYNCSWDSKTFEVTCLYADP [546-B01 peptide-displaying phage (SEQ ID NO: 393)] | 77%
GDYSECFFEPDSFEVKCYDRDP [545-H12 peptide-displaying phage (SEQ ID NO: 399)] | 60%
AQQASRFTFTDGDSYWWFEDF [525-A07 peptide-displaying phage (SEQ ID NO: 449)] | 88%
GDLLVCKFDDKFWTETCEWADP [549-G05 peptide-displaying phage (SEQ ID NO: 392)] | 21%
GSDMNCTVLAQDQIFCFREAP [451-C06 peptide-displaying phage (SEQ ID NO: 386)] | 86%
GDLLGCGYQEKGGEYKCRFNDP [334-F05 peptide-displaying phage (SEQ ID NO: 395)] | 29%
GSFWNCTTDLGAMSDCGFFAP [445-E07 peptide-displaying phage (SEQ ID NO: 383)] | 64%
AGDGWCMAWPEICEWLGT [434-E12 peptide-displaying phage (SEQ ID NO: 014)] | 41%
GDPWWCFEKDSFIPFACWHHDP [330-G02 peptide-displaying phage (SEQ ID NO: 396)] | 31%
GDDFHCEFIDDYQSEICYFNDP [333-C03 peptide-displaying phage (SEQ ID NO: 391)] | 43%

What follows are binders tested against T2, human cMet expressed on 3T3 cells (human, UniProt P08581 25-1390) (assay: whole cell phage ELISA, 3T3 human cMet vs 3T3).
T2 construct: whole, on cells; cells fixed with glutaraldehyde; also called cell surface-expressed human cMet; 3T3 cells that over-express human cMet
T2 sequence (P08581 25-1390): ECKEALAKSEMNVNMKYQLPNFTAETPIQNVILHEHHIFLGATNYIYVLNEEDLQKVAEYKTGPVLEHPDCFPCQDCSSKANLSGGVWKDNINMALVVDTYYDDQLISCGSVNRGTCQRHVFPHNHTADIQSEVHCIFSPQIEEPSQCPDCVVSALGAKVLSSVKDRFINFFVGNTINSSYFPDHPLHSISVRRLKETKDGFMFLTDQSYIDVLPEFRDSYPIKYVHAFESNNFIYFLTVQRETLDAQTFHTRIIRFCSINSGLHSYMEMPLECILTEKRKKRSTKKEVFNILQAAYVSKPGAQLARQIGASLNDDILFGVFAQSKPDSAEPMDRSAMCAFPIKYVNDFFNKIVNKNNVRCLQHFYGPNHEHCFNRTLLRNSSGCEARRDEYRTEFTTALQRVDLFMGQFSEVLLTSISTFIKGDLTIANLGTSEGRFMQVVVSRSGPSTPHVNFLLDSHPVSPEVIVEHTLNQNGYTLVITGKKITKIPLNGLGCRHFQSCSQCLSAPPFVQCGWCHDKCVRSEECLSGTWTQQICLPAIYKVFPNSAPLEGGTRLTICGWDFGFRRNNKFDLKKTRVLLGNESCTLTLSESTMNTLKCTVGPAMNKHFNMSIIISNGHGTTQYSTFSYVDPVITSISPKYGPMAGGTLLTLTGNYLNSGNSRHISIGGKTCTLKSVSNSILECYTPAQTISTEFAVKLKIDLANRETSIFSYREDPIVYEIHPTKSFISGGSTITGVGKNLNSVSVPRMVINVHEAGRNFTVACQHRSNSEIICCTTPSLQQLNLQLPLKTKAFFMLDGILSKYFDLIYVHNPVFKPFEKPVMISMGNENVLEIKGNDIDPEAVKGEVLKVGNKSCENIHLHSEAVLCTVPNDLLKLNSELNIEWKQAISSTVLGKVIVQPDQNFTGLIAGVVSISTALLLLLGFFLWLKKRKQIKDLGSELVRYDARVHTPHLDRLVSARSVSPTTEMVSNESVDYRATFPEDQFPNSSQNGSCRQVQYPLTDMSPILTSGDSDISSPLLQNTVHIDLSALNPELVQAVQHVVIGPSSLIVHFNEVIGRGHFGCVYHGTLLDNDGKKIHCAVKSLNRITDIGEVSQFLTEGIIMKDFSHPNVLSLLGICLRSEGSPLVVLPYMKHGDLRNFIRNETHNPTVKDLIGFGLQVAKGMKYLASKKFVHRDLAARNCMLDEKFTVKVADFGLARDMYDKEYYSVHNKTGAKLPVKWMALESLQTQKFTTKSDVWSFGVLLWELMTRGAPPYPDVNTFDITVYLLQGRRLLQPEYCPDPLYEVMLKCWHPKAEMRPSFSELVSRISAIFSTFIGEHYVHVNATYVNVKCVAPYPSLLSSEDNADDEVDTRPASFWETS
Outline: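 Bound phage was detected with an HRP-conjugated anti-M13 antibody after PBST washes. The cells were cMet-over-expressing 3T3, read against plain 3T3.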

Binder | WC ELISA (fold over background)
GDYRMCQISDMWGNYECSSDDP [548-G05 peptide-displaying phage (SEQ ID NO: 400)] | 1.3 fold
GSAGWCYTMNYVDQLCTYMAP [445-E11 peptide-displaying phage (SEQ ID NO: 387)] | 1.43 fold
GDHLTCEFRDDGWKEHCWWSDP [552-F06 peptide-displaying phage (SEQ ID NO: 403)] | 1.23 fold
GDSYNCSWDSKTFEVTCLYADP [546-B01 peptide-displaying phage (SEQ ID NO: 393)] | 1.2 fold
GDYSECFFEPDSFEVKCYDRDP [545-H12 peptide-displaying phage (SEQ ID NO: 399)] | 1.3 fold
AQQASRFTFTDGDSYWWFEDF [525-A07 peptide-displaying phage (SEQ ID NO: 449)] | 1.17 fold
GDLLVCKFDDKFWTETCEWADP [549-G05 peptide-displaying phage (SEQ ID NO: 392)] | 1.47 fold
GSDMNCTVLAQDQIFCFREAP [451-C06 peptide-displaying phage (SEQ ID NO: 386)] | 1.37 fold
GDLLGCGYQEKGGEYKCRFNDP [334-F05 peptide-displaying phage (SEQ ID NO: 395)] | 1.4 fold
GSFWNCTTDLGAMSDCGFFAP [445-E07 peptide-displaying phage (SEQ ID NO: 383)] | 1.37 fold
AGDGWCMAWPEICEWLGT [434-E12 peptide-displaying phage (SEQ ID NO: 014)] | 1.33 fold
GDPWWCFEKDSFIPFACWHHDP [330-G02 peptide-displaying phage (SEQ ID NO: 396)] | 1.3 fold
GDDFHCEFIDDYQSEICYFNDP [333-C03 peptide-displaying phage (SEQ ID NO: 391)] | 1.37 fold

What follows are binders tested against T1, cMet-Fc fusion protein (extracellular …) (assay: phage ELISA on cMet-Fc, competitor HGF 100 ng/mL).
Outline: as §1

Binder | % of binding in the absence of HGF
GDYRMCQISDMWGNYECSSDDP [548-G05 peptide-displaying phage (SEQ ID NO: 400)] | 110%
GSAGWCYTMNYVDQLCTYMAP [445-E11 peptide-displaying phage (SEQ ID NO: 387)] | 69%
GDHLTCEFRDDGWKEHCWWSDP [552-F06 peptide-displaying phage (SEQ ID NO: 403)] | 82%
GDSYNCSWDSKTFEVTCLYADP [546-B01 peptide-displaying phage (SEQ ID NO: 393)] | 95%
GDYSECFFEPDSFEVKCYDRDP [545-H12 peptide-displaying phage (SEQ ID NO: 399)] | 74%
AQQASRFTFTDGDSYWWFEDF [525-A07 peptide-displaying phage (SEQ ID NO: 449)] | 93%
GDLLVCKFDDKFWTETCEWADP [549-G05 peptide-displaying phage (SEQ ID NO: 392)] | 28%
GSDMNCTVLAQDQIFCFREAP [451-C06 peptide-displaying phage (SEQ ID NO: 386)] | 108%
GDLLGCGYQEKGGEYKCRFNDP [334-F05 peptide-displaying phage (SEQ ID NO: 395)] | 58%
GSFWNCTTDLGAMSDCGFFAP [445-E07 peptide-displaying phage (SEQ ID NO: 383)] | 82%
AGDGWCMAWPEICEWLGT [434-E12 peptide-displaying phage (SEQ ID NO: 014)] | 117%
GDPWWCFEKDSFIPFACWHHDP [330-G02 peptide-displaying phage (SEQ ID NO: 396)] | 37%
GDDFHCEFIDDYQSEICYFNDP [333-C03 peptide-displaying phage (SEQ ID NO: 391)] | 52%
